Reference: the supplement of paper PMC10065799, “High-throughput profiling of sequence recognition by tyrosine kinases and SH2 domains using bacterial peptide display” (eLife, 2023)

The sequences below were run on Fer (mouse) (assay: phosphorylation enrichment, bacterial display (enrichment ratio); higher = better substrate or ligand; peptides without Tyr show the background).
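Note: 11-residue human phosphosite peptides and single-mutation variants displayed on the E. coli surface, counted by deep sequencing, each peptide's frequency after selection divided by its frequency in the unselected input library; frequency after pTyr selection over input frequency; kinase dosed for 20-30% of maximal phosphorylation in three min.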

In order of rising phosphorylation enrichment:
1. YLAATYPTVGQ [NF1_Y2508]  0.357
2. KHVMPYAANKN [GRIN2A_Y1431_E1426K]  0.374
3. IGHHAYGDQYR [IDH1_Y135_R132H]  0.386
4. GGPAGYLWRAS [PKLR_Y38_R40W]  0.392
5. DVELLYPLKEK [EPHX1_Y283_V285L]  0.422
6. NHYKIYNLCAE [PTEN_Y68]  0.439
7. KEELDYLKKNH [KRT14_Y248_A247D]  0.45
8. FNDSTYNQQLI [ZPLD1_Y198_YF]  0.463
9. ADLVQYYMEHH [PTPN11_Y80_E76D]  0.464
10. DKHGQYLIGHG [EPHB4_Y581]  0.465
11. EARRVYGDIIH [ALDH5A1_Y175]  0.477
12. KIITDYYVDMK [MPP4_Y566_V562I]  0.482
13. FFHKFYNKSED [RYR1_Y4864_R4861H]  0.497
14. TPGPNYCPGYN [USH2A_Y463_R464C]  0.497
15. AVLSLYASGRT [ACTA1_Y145]  0.503
16. LRFDSYWSFCN [SLC20A2_Y433_S434W_YF]  0.506
17. AELVPYYMEHH [PTPN11_Y80_Q79P]  0.513
18. PTFENYANSTQ [SLC12A3_Y70_H69N_YF]  0.52
19. YKTPTYPYLLP [PLD2_Y578]  0.543
20. SDVSSYLEGQV [GCG_Y110_A115V]  0.547
21. DISEPYKVFRI [IRF8_Y107_YF]  0.565
22. RAMPVYKEAEH [TP63_Y231_K233E]  0.602
23. LHNLSYQLEAE [PKP2_Y616]  0.605
24. MCVKSYTIHYS [F5_Y2153_Y2149C]  0.636
25. PSQRCYVFFFS [PTEN_Y174_R173C_YF]  0.703
26. IIWDSYTTNEM [GNB4_Y85_K89E]  0.705
27. IDAVCYYRMEN [NPHS2_Y194_I192V]  0.729
28. FKDFFYCWNTS [AICDA_Y146_F151S_YF]  0.768
29. LNNIIYRLERA [CUX2_Y1470_V1472L]  0.812
30. QFLMKYVWSAP [ABCD1_Y337_S342P]  0.836
31. RYVYYYSYLLK [PTEN_Y178]  1.09
32. GRSTYYWPSPR [GAGE12J_Y10_R13S]  1.44
33. TINPIYEHVGF [CHN1_Y143_YF]  18.2

The sequences below were run against Fes (UniProt P07332) in the same assay as above.
Chain of Fes (P07332 whole entry, looked up): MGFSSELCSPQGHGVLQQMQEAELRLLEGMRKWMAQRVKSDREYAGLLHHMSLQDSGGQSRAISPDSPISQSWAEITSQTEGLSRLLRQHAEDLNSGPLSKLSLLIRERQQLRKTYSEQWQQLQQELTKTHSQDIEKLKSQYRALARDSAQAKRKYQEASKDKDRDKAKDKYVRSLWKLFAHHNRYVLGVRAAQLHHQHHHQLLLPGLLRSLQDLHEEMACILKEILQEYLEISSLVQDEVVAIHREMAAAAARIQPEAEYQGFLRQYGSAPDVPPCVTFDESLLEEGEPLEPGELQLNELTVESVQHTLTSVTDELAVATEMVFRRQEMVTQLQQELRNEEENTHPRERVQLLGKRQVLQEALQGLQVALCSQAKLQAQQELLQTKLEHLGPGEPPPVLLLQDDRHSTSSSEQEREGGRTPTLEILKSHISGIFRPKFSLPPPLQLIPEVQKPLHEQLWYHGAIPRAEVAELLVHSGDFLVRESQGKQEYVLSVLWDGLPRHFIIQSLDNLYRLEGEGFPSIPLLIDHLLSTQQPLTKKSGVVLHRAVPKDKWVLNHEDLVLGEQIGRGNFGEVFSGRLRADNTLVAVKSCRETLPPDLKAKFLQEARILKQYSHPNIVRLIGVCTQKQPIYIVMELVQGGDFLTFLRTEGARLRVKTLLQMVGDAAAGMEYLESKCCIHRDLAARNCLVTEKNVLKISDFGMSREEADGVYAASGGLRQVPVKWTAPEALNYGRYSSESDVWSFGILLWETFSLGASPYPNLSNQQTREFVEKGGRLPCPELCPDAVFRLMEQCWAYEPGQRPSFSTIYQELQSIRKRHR

In order of falling phosphorylation enrichment:
1. TINPIYEHVGF [CHN1_Y143_YF]  9.52
2. RYVYYYSYLLK [PTEN_Y178]  1.82
3. PSQRCYVFFFS [PTEN_Y174_R173C_YF]  1.73
4. QFLMKYVWSAP [ABCD1_Y337_S342P]  1.63
5. IDAVCYYRMEN [NPHS2_Y194_I192V]  1.51
6. FKDFFYCWNTS [AICDA_Y146_F151S_YF]  1.5
7. LHNLSYQLEAE [PKP2_Y616]  1.45
8. IIWDSYTTNEM [GNB4_Y85_K89E]  1.43
9. FFHKFYNKSED [RYR1_Y4864_R4861H]  1.43
10. LNNIIYRLERA [CUX2_Y1470_V1472L]  1.37
11. LRFDSYWSFCN [SLC20A2_Y433_S434W_YF]  1.33
12. MCVKSYTIHYS [F5_Y2153_Y2149C]  1.26
13. SDVSSYLEGQV [GCG_Y110_A115V]  1.24
14. AVLSLYASGRT [ACTA1_Y145]  1.2
15. DISEPYKVFRI [IRF8_Y107_YF]  1.17
16. TPGPNYCPGYN [USH2A_Y463_R464C]  1.17
17. ADLVQYYMEHH [PTPN11_Y80_E76D]  1.12
18. KEELDYLKKNH [KRT14_Y248_A247D]  1.1
19. PTFENYANSTQ [SLC12A3_Y70_H69N_YF]  1.08
20. RAMPVYKEAEH [TP63_Y231_K233E]  1.01
21. DVELLYPLKEK [EPHX1_Y283_V285L]  1
22. AELVPYYMEHH [PTPN11_Y80_Q79P]  0.995
23. GGPAGYLWRAS [PKLR_Y38_R40W]  0.941
24. KIITDYYVDMK [MPP4_Y566_V562I]  0.941
25. FNDSTYNQQLI [ZPLD1_Y198_YF]  0.878
26. GRSTYYWPSPR [GAGE12J_Y10_R13S]  0.796
27. NHYKIYNLCAE [PTEN_Y68]  0.784
28. YKTPTYPYLLP [PLD2_Y578]  0.764
29. YLAATYPTVGQ [NF1_Y2508]  0.753
30. EARRVYGDIIH [ALDH5A1_Y175]  0.707
31. DKHGQYLIGHG [EPHB4_Y581]  0.645
32. IGHHAYGDQYR [IDH1_Y135_R132H]  0.537
33. KHVMPYAANKN [GRIN2A_Y1431_E1426K]  0.511

Each sequence was assayed on AncSZ in the same assay as above.

In order of rising phosphorylation enrichment:
1. KHVMPYAANKN [GRIN2A_Y1431_E1426K]  0.547
2. IGHHAYGDQYR [IDH1_Y135_R132H]  0.564
3. NHYKIYNLCAE [PTEN_Y68]  0.579
4. EARRVYGDIIH [ALDH5A1_Y175]  0.608
5. DKHGQYLIGHG [EPHB4_Y581]  0.652
6. YLAATYPTVGQ [NF1_Y2508]  0.677
7. GGPAGYLWRAS [PKLR_Y38_R40W]  0.683
8. TPGPNYCPGYN [USH2A_Y463_R464C]  0.694
9. PTFENYANSTQ [SLC12A3_Y70_H69N_YF]  0.853
10. FNDSTYNQQLI [ZPLD1_Y198_YF]  0.883
11. AELVPYYMEHH [PTPN11_Y80_Q79P]  0.916
12. SDVSSYLEGQV [GCG_Y110_A115V]  0.924
13. YKTPTYPYLLP [PLD2_Y578]  0.958
14. FFHKFYNKSED [RYR1_Y4864_R4861H]  1
15. AVLSLYASGRT [ACTA1_Y145]  1.02
16. TINPIYEHVGF [CHN1_Y143_YF]  1.02
17. RAMPVYKEAEH [TP63_Y231_K233E]  1.02
18. KEELDYLKKNH [KRT14_Y248_A247D]  1.04
19. DVELLYPLKEK [EPHX1_Y283_V285L]  1.08
20. KIITDYYVDMK [MPP4_Y566_V562I]  1.09
21. DISEPYKVFRI [IRF8_Y107_YF]  1.11
22. MCVKSYTIHYS [F5_Y2153_Y2149C]  1.12
23. LHNLSYQLEAE [PKP2_Y616]  1.12
24. ADLVQYYMEHH [PTPN11_Y80_E76D]  1.18
25. LRFDSYWSFCN [SLC20A2_Y433_S434W_YF]  1.25
26. FKDFFYCWNTS [AICDA_Y146_F151S_YF]  1.32
27. PSQRCYVFFFS [PTEN_Y174_R173C_YF]  1.37
28. IIWDSYTTNEM [GNB4_Y85_K89E]  1.48
29. LNNIIYRLERA [CUX2_Y1470_V1472L]  1.67
30. QFLMKYVWSAP [ABCD1_Y337_S342P]  1.68
31. RYVYYYSYLLK [PTEN_Y178]  1.74
32. GRSTYYWPSPR [GAGE12J_Y10_R13S]  1.78
33. IDAVCYYRMEN [NPHS2_Y194_I192V]  1.96

These sequences were tested on c-Src in the same assay as above.

In order of falling phosphorylation enrichment:
1. TINPIYEHVGF [CHN1_Y143_YF]  9.42
2. GRSTYYWPSPR [GAGE12J_Y10_R13S]  7.28
3. LNNIIYRLERA [CUX2_Y1470_V1472L]  3.45
4. LRFDSYWSFCN [SLC20A2_Y433_S434W_YF]  2.72
5. IDAVCYYRMEN [NPHS2_Y194_I192V]  2.48
6. RYVYYYSYLLK [PTEN_Y178]  2.48
7. NHYKIYNLCAE [PTEN_Y68]  2.05
8. AELVPYYMEHH [PTPN11_Y80_Q79P]  1.28
9. ADLVQYYMEHH [PTPN11_Y80_E76D]  0.84
10. LHNLSYQLEAE [PKP2_Y616]  0.646
11. PSQRCYVFFFS [PTEN_Y174_R173C_YF]  0.646
12. DISEPYKVFRI [IRF8_Y107_YF]  0.628
13. YKTPTYPYLLP [PLD2_Y578]  0.625
14. FNDSTYNQQLI [ZPLD1_Y198_YF]  0.617
15. FKDFFYCWNTS [AICDA_Y146_F151S_YF]  0.589
16. FFHKFYNKSED [RYR1_Y4864_R4861H]  0.588
17. IIWDSYTTNEM [GNB4_Y85_K89E]  0.57
18. RAMPVYKEAEH [TP63_Y231_K233E]  0.563
19. SDVSSYLEGQV [GCG_Y110_A115V]  0.52
20. KIITDYYVDMK [MPP4_Y566_V562I]  0.517
21. EARRVYGDIIH [ALDH5A1_Y175]  0.499
22. KEELDYLKKNH [KRT14_Y248_A247D]  0.467
23. AVLSLYASGRT [ACTA1_Y145]  0.461
24. MCVKSYTIHYS [F5_Y2153_Y2149C]  0.45
25. DVELLYPLKEK [EPHX1_Y283_V285L]  0.439
26. DKHGQYLIGHG [EPHB4_Y581]  0.436
27. QFLMKYVWSAP [ABCD1_Y337_S342P]  0.429
28. IGHHAYGDQYR [IDH1_Y135_R132H]  0.418
29. YLAATYPTVGQ [NF1_Y2508]  0.407
30. PTFENYANSTQ [SLC12A3_Y70_H69N_YF]  0.391
31. KHVMPYAANKN [GRIN2A_Y1431_E1426K]  0.36
32. TPGPNYCPGYN [USH2A_Y463_R464C]  0.35
33. GGPAGYLWRAS [PKLR_Y38_R40W]  0.344
